Test results as given in the supplement of paper PMC10724198.
± gives the standard deviation of the averaged measurements.

system: Saccharomyces cerevisiae; assay: protein stability index of tFT-peptide fusion (C-terminal peptide) (PSI (0-1 scale)); higher = more stable (slower turnover); conditions: genetic background: wild type; temperature: 30 C
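Further: PSI is a weighted mean of sequencing reads over stability bins, variants kept only with over 10 reads, mCherry proximal and sfGFP distal, peptide attached via GGGS linker.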

Compared with HTGLRASSPNST, SFFLALSIRLPN is lower in protein stability index: 0.753 ± 0.052 for the first, 0.609 ± 0.0042 for the second.

First: SPPPPPPPPPPL
Second: PLSVPHQPLCPV
The protein stability index of the first is higher: 0.757 ± 0.041 for the first, 0.686 ± 0.028 for the second.

First: FSQLVQPSSFTS
Second: TVFDPLGLPALL
The protein stability index of the first is higher: 0.7176 ± 0.004 for the first, 0.617 ± 0.04 for the second.

First: DQLETTSAPLPG
Second: GDRGIKAYGVRG
The protein stability index of the first is higher: 0.711 ± 0.044 for the first, 0.65 ± 0.015 for the second.

First: PPRASQSLLAVP
Second: RGPLNPNWPPTD
The protein stability index of the first is lower: 0.6555 ± 0.0035 for the first, 0.7 ± 0.037 for the second.

YVTSKLMNLVLY and AGRSAHMEVRHE are within error of each other in protein stability index: 0.662 ± 0.066 for the first, 0.712 ± 0.047 for the second.

TRLKKTEKTKER and ETHRANTRMERL are within error of each other in protein stability index: 0.739 ± 0.025 for the first, 0.726 ± 0.049 for the second.

TGIGCRFIWCSK and PPCRRGRTHGVY are within error of each other in protein stability index: 0.65 ± 0.037 for the first, 0.685 ± 0.024 for the second.

IPSPYPPPAPLH and VGAAGGVGGSGG are within error of each other in protein stability index: 0.666 ± 0.011 for the first, 0.629 ± 0.048 for the second.

ALLPPPRPLPHP and WGVGVGGRMRPH are within error of each other in protein stability index: 0.719 ± 0.014 for the first, 0.707 ± 0.044 for the second.

SLGGRVAGGWRD and PPPQPPPRHSPP are within error of each other in protein stability index: 0.645 ± 0.1 for the first, 0.676 ± 0.031 for the second.

Going from CAWRSVRLLIAH to GSMVWVRCGLER, the protein stability index rises from 0.506 ± 0.068 to 0.634 ± 0.022.

RKTSIKNKKKKI and GKITKNKDNIET are within error of each other in protein stability index: 0.693 ± 0.059 for the first, 0.686 ± 0.021 for the second.

LSDMNHVLKVFL and CRVVRGGEGLGG are within error of each other in protein stability index: 0.665 ± 0.054 for the first, 0.652 ± 0.0081 for the second.

GEGRRYVVVTEG and DVVFRLAFTDFC are the same in protein stability index: 0.693 ± 0.035 for the first, 0.693 ± 0.021 for the second.

PPPAPPTFPLRS and GFYPGRSKGCLG are within error of each other in protein stability index: 0.684 ± 0.087 for the first, 0.73 ± 0.05 for the second.

Going from FCAVRYLVEGRV to KEKKNKKKKQNR, the protein stability index rises from 0.533 ± 0.0064 to 0.701 ± 0.021.

EKKKKNKNQEKQ and GGEYVGGRGCGL are within error of each other in protein stability index: 0.671 ± 0.044 for the first, 0.682 ± 0.1 for the second.

First: GWESCLGVTRSV
Second: PARPNMHTTPAD
The protein stability index of the first is higher: 0.69 ± 0.018 for the first, 0.646 ± 0.02 for the second.

PAPPLPPLPLLP and SLPPFPVTSRHP are within error of each other in protein stability index: 0.684 ± 0.013 for the first, 0.691 ± 0.011 for the second.

TVGGAMSCLGWL and SPSSFVTFVVLE are within error of each other in protein stability index: 0.714 ± 0.011 for the first, 0.652 ± 0.098 for the second.

Going from VVVGVGGCVDMG to SSPLPLPLHPPP, the protein stability index rises from 0.676 ± 0.014 to 0.7146 ± 0.0062.

PPPPFSPPPPSA and AYVHGSINPMQP are within error of each other in protein stability index: 0.7 ± 0.04 for the first, 0.691 ± 0.011 for the second.

DRPDLVLAGVCG and KKKKKKNNSKTT are within error of each other in protein stability index: 0.756 ± 0.06 for the first, 0.739 ± 0.19 for the second.

First: SRLKAPADTDPN
Second: GNRYLCIEVTWV
The protein stability index of the first is higher: 0.7 ± 0.015 for the first, 0.48 ± 0.055 for the second.

Going from HYEIFSCDPGCD to RFVRGEFLWGVC, the protein stability index falls from 0.746 ± 0.024 to 0.663 ± 0.044.

Compared with VAVVSATVGASG, VAWSACRLSLWG is higher in protein stability index: 0.68 ± 0.026 for the first, 0.889 ± 0.016 for the second.

FVVGTFGHRRGR and ACTWASSSLARG are within error of each other in protein stability index: 0.694 ± 0.019 for the first, 0.735 ± 0.027 for the second.

Compared with RNLRCDIVNVYP, GVSCIAEGRGGW is lower in protein stability index: 0.759 ± 0.015 for the first, 0.7143 ± 0.00091 for the second.

DVAEAGPRPPPT and SPTAPPPRPFPP are within error of each other in protein stability index: 0.755 ± 0.091 for the first, 0.679 ± 0.042 for the second.

Going from RPPTASPLVAPA to VRVKRAGGGGVG, the protein stability index falls from 0.655 ± 0.0067 to 0.591 ± 0.028.

DLLAVPALTLHL and DRTNIIGVIDDL are within error of each other in protein stability index: 0.677 ± 0.14 for the first, 0.753 ± 0.05 for the second.

Going from LPPSNYPCPSGK to LLNLLLFLLPPS, the protein stability index falls from 0.706 ± 0.02 to 0.636 ± 0.031.

HRAFAAGFGVWG and TTGGRGSRVGGR are within error of each other in protein stability index: 0.669 ± 0.067 for the first, 0.6975 ± 0.0024 for the second.

LRPGVRHFRECV and AVGLGPFGGSRG are within error of each other in protein stability index: 0.627 ± 0.096 for the first, 0.695 ± 0.0095 for the second.

LVVGGLVLSGNL and LSPTPSAPPCFG are within error of each other in protein stability index: 0.668 ± 0.057 for the first, 0.601 ± 0.043 for the second.

KLKKNKTREMET and GLRGRRRAAGRV are within error of each other in protein stability index: 0.789 ± 0.018 for the first, 0.726 ± 0.06 for the second.

GSSGPCRSHVLG and PCRRPSSAPFPV are within error of each other in protein stability index: 0.694 ± 0.02 for the first, 0.696 ± 0.027 for the second.

Compared with LGLSLPCRGFTL, PAPLLPPSWRHP is higher in protein stability index: 0.682 ± 0.0073 for the first, 0.716 ± 0.015 for the second.

First: WRRPRVLWVSSR
Second: NSVHVRGRFITK
The protein stability index of the first is lower: 0.637 ± 0.0079 for the first, 0.678 ± 0.023 for the second.

VYVLTKSSMGRN and SGRVGRGAADWR are within error of each other in protein stability index: 0.692 ± 0.048 for the first, 0.681 ± 0.029 for the second.

VERDARGESCSR and TCFYYVGGEKCM are within error of each other in protein stability index: 0.747 ± 0.18 for the first, 0.665 ± 0.0077 for the second.

Going from VPLRGPAPPRPR to PVINPSCIVMMW, the protein stability index falls from 0.739 ± 0.035 to 0.65 ± 0.04.

IGIGVAGERLGV and VLPRPLPALPPL are within error of each other in protein stability index: 0.612 ± 0.059 for the first, 0.683 ± 0.028 for the second.

SSSAPLPPSLPL and RGELSGVRVSVR are within error of each other in protein stability index: 0.791 ± 0.16 for the first, 0.645 ± 0.043 for the second.

PTPHPHTGSLEG and GGRFPGGGGRRR are within error of each other in protein stability index: 0.651 ± 0.011 for the first, 0.583 ± 0.06 for the second.

PVSVSSFFLSRF and GGLRPLFLCCLF are within error of each other in protein stability index: 0.767 ± 0.21 for the first, 0.569 ± 0.05 for the second.

FSRGRAVRVRRT and GGWWGGLGCFMV are within error of each other in protein stability index: 0.728 ± 0.21 for the first, 0.699 ± 0.034 for the second.

First: PLLSPLPSHPHP
Second: PHYRYLHPSPPP
The protein stability index of the first is higher: 0.815 ± 0.058 for the first, 0.704 ± 0.0073 for the second.

Compared with PLALRPPFSHGL, TRLTSATHGVCC is lower in protein stability index: 0.698 ± 0.024 for the first, 0.6331 ± 0.0053 for the second.

In the case of IWAEYIDAVLIN, the protein stability index is reported as 0.6 ± 0.061.
